Target: SkpA (Fjoh_1689) (Flavobacterium johnsoniae (endogenous))
Test: cryo-EM structure; Extended Translocon, peak I of Twin-strep–SprA complexes from a ΔgldL background (also seen at 4.3 Å from ΔgldM peak I); assembled in vivo, in LMNG

stoichiometry N: 3
Substance: SkpA (Fjoh_1689) (natural protein)

Source: PMC10994853
